Measured values as given in the supplement of paper PMC6379048.

Tests used:
Assay in all cases: EC50 of free RNA motif oligo competing protein binding to immobilised probe
[1] = biological target: RPS3A (UniProt P61247)
In short: (§1)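 HEK293-FT lysate (2.5 mg protein/well) was treated with free RNA oligos (0 nM to 30 μM) for 1 h at 4°C, then with the same oligos on NHS-Sepharose beads for 30 min at 4°C. Bound proteins were quantified by label-free LC-MS/MS relative to the control. EC50 came from a four-parameter log-logistic fit, and Kd is EC50 times a protein-dependent depletion factor.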

[2] = biological target: MRPL14 (UniProt Q6P1L8)
In short: as §1

[3] = biological target: RPS13 (UniProt P62277)
In short: as §1

[4] = biological target: PCBP2 (UniProt Q15366)
Sequence of PCBP2 (Q15366 whole entry): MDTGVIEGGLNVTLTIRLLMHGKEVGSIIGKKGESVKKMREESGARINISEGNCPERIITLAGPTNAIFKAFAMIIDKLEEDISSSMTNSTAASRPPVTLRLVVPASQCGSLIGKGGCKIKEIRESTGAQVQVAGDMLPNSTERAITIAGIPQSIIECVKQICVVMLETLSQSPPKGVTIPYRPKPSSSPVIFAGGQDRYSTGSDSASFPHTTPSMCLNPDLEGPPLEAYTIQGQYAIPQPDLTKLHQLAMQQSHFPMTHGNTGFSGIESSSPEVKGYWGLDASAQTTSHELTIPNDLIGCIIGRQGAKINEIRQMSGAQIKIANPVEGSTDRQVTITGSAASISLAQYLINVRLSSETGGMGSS
In short: as §1

[5] = biological target: IGF2BP1 (UniProt Q9NZI8)
Sequence of IGF2BP1 (Q9NZI8 whole entry): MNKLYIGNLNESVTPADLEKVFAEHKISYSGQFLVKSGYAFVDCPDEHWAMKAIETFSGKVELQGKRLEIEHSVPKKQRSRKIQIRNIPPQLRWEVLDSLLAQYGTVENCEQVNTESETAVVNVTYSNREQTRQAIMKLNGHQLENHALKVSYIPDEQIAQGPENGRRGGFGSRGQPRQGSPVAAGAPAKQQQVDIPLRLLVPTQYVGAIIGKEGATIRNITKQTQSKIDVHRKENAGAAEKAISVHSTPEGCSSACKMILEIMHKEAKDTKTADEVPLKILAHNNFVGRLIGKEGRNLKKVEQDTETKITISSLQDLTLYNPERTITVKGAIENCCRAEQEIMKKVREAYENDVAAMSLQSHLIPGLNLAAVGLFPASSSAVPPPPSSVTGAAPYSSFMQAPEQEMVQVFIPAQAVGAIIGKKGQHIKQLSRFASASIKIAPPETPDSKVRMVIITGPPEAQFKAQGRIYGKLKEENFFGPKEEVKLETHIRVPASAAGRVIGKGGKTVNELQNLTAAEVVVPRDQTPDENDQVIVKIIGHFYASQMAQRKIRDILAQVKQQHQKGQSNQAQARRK
In short: as §1

[6] = biological target: SRSF6 (UniProt Q13247)
Sequence of SRSF6 (Q13247 whole entry, looked up): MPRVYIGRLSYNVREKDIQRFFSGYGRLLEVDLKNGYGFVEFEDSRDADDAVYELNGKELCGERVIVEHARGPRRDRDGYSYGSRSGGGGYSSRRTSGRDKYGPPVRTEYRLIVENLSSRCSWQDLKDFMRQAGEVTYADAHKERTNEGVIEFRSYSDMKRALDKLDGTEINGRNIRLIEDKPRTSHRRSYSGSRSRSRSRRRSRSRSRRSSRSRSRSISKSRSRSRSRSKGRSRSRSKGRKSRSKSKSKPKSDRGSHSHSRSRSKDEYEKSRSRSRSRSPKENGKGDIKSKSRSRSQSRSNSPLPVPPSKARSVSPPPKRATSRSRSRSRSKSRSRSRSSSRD
In short: as §1

[7] = biological target: T1, HNRNPR (UniProt O43390)
T1 sequence: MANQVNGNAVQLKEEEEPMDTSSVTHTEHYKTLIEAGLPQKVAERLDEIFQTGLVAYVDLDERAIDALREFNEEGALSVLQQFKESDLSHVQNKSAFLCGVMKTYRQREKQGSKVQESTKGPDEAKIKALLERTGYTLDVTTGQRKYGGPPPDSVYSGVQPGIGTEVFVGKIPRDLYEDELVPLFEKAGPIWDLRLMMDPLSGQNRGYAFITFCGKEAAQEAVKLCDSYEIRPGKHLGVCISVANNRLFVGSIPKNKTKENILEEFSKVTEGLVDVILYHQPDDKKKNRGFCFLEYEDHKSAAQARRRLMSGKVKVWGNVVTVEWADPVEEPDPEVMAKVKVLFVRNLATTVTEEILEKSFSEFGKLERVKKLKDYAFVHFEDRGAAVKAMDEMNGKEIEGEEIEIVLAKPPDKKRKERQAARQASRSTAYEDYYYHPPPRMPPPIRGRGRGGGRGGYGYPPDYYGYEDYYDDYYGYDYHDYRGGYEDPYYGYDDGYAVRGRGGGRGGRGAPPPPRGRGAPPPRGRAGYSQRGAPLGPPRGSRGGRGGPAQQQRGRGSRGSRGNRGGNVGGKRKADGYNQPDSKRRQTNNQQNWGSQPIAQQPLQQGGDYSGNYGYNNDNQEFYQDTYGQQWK
In short: as §1

[8] = biological target: GPATCH11 (UniProt Q8N954)
Sequence of GPATCH11 (Q8N954 whole entry): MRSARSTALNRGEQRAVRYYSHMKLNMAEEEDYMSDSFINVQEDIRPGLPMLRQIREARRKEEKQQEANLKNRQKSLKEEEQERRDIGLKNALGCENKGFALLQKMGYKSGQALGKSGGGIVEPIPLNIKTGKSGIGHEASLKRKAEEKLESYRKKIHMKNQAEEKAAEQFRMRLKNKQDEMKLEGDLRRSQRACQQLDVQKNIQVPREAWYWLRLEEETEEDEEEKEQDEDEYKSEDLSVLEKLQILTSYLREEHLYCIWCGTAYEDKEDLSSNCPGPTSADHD
In short: as §1

[9] = biological target: P4HB (UniProt P07237)
Sequence of P4HB (P07237 whole entry, looked up): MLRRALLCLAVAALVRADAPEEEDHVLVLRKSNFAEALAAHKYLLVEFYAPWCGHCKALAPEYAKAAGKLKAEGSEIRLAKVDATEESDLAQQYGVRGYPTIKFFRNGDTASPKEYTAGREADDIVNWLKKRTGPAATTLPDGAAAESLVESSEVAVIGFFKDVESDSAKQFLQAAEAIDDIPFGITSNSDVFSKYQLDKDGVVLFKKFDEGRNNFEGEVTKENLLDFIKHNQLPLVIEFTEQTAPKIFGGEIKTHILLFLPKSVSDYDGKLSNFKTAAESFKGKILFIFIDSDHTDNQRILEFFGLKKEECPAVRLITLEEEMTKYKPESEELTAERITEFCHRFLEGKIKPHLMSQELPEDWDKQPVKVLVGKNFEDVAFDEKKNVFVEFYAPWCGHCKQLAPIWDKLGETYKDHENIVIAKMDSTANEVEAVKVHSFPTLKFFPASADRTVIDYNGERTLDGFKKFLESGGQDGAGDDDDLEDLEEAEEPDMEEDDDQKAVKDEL
In short: as §1

[10] = biological target: U2AF2 (UniProt P26368)
Sequence of U2AF2 (P26368 whole entry): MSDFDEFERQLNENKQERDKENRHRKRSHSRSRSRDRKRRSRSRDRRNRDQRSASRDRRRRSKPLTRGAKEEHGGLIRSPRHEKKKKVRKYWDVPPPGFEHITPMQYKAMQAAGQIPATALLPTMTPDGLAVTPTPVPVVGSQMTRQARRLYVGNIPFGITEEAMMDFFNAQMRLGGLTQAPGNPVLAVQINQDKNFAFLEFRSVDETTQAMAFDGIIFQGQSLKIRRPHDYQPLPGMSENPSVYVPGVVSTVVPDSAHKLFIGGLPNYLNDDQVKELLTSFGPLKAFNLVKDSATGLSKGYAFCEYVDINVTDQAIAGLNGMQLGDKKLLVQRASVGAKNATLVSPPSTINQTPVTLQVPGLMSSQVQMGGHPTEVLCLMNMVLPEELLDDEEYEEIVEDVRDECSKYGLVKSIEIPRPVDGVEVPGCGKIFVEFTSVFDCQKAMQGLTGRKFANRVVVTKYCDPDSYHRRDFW
In short: as §1

[11] = biological target: MRPS25 (UniProt P82663)
In short: as §1

[12] = biological target: PTCD3 (UniProt Q96EY7)
In short: as §1

[13] = biological target: T2, MYEF2 (UniProt Q9P2K5)
T2 sequence: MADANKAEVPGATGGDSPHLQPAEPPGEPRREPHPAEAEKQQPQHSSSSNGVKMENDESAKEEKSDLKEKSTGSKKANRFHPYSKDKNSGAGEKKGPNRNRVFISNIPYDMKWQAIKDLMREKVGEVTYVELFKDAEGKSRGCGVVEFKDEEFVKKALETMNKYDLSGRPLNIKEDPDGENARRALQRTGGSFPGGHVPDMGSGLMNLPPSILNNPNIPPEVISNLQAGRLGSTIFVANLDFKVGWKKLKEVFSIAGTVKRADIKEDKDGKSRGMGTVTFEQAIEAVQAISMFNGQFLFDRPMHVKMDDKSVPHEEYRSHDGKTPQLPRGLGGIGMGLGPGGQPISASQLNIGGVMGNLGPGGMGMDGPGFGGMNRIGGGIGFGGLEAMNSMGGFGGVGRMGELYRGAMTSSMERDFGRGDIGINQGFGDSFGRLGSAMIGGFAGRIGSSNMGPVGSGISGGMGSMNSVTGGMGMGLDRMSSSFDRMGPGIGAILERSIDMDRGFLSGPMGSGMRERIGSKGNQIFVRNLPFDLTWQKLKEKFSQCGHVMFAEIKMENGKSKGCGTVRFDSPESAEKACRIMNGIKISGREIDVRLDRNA
In short: as §1

[14] = biological target: MRPS18B (UniProt Q9Y676)
In short: as §1

CUGUCCU
EC50 [1]: 106 nM
EC50 [2]: 104 nM
EC50 [3]: 123 nM
EC50 [4]: 3390 nM
EC50 [5]: 3740 nM
EC50 [6]: 1140 nM

AAUAAA
EC50 [7]: 2840 nM
EC50 [8]: 122 nM
EC50 [9]: 40.4 nM
EC50 [10]: 1010 nM

UAUUUAU
EC50 [11]: 17.4 nM
EC50 [12]: 50 nM
EC50 [13]: 3800 nM
EC50 [14]: 51.4 nM
